Values joined by “and” are separate entries in the source; they are usually repeats but may differ in a detail not shown here. Equal values may be shown once.
B1: CtIP-cNTD, human CtIP residues 52-145 (domain or fragment)
chain: DAQRLEEFFTKNQQLREQQKVLHETIKVLEDRLRAGLCDRCAVTEEHMRKKQQEFENIRQQNLKLITELMNERNTLQEENKKLSEQLQQKIEND
B2: CtIP-cNTD-DM, C89A C92A double mutant of CtIP residues 52-145 (domain or fragment)
chain: DAQRLEEFFTKNQQLREQQKVLHETIKVLEDRLRAGLADRAAVTEEHMRKKQQEFENIRQQNLKLITELMNERNTLQEENKKLSEQLQQKIEND
B3: CtIP N-terminal domain (CtIP-NTD), human CtIP residues 18-145 (domain or fragment)
chain: SDFKDLWTKLKECHDREVQGLQVKVTKLKQERILDAQRLEEFFTKNQQLREQQKVLHETIKVLEDRLRAGLCDRCAVTEEHMRKKQQEFENIRQQNLKLITELMNERNTLQEENKKLSEQLQQKIEND
B4: CtIP-NTD-DM, C89A C92A double mutant of CtIP residues 18-145 (domain or fragment)
chain: SDFKDLWTKLKECHDREVQGLQVKVTKLKQERILDAQRLEEFFTKNQQLREQQKVLHETIKVLEDRLRAGLADRAAVTEEHMRKKQQEFENIRQQNLKLITELMNERNTLQEENKKLSEQLQQKIEND
B5: L27E CtIP-NTD, human CtIP residues 18-145 with L27E (domain or fragment)
chain: SDFKDLWTKEKECHDREVQGLQVKVTKLKQERILDAQRLEEFFTKNQQLREQQKVLHETIKVLEDRLRAGLCDRCAVTEEHMRKKQQEFENIRQQNLKLITELMNERNTLQEENKKLSEQLQQKIEND
B6: F20E CtIP-NTD, human CtIP residues 18-145 with F20E (domain or fragment)
chain: SDEKDLWTKLKECHDREVQGLQVKVTKLKQERILDAQRLEEFFTKNQQLREQQKVLHETIKVLEDRLRAGLCDRCAVTEEHMRKKQQEFENIRQQNLKLITELMNERNTLQEENKKLSEQLQQKIEND
B7: Δ20-27 CtIP-NTD, human CtIP residues 18-145 with residues 20-27 deleted (domain or fragment)
chain: SDKECHDREVQGLQVKVTKLKQERILDAQRLEEFFTKNQQLREQQKVLHETIKVLEDRLRAGLCDRCAVTEEHMRKKQQEFENIRQQNLKLITELMNERNTLQEENKKLSEQLQQKIEND
B8: FLAG-tagged full-length wild-type CtIP purified from HEK-293T cells (natural protein)
chain: MNISGSSCGSPNSADTSSDFKDLWTKLKECHDREVQGLQVKVTKLKQERILDAQRLEEFFTKNQQLREQQKVLHETIKVLEDRLRAGLCDRCAVTEEHMRKKQQEFENIRQQNLKLITELMNERNTLQEENKKLSEQLQQKIENDQQHQAAELECEEDVIPDSPITAFSFSGVNRLRRKENPHVRYIEQTHTKLEHSVCANEMRKVSKSSTHPQHNPNENEILVADTYDQSQSPMAKAHGTSSYTPDKSSFNLATVVAETLGLGVQEESETQGPMSPLGDELYHCLEGNHKKQPFEESTRNTEDSLRFSDSTSKTPPQEELPTRVSSPVFGATSSIKSGLDLNTSLSPSLLQPGKKKHLKTLPFSNTCISRLEKTRSKSEDSALFTHHSLGSEVNKIIIQSSNKQILINKNISESLGEQNRTEYGKDSNTDKHLEPLKSLGGRTSKRKKTEEESEHEVSCPQASFDKENAFPFPMDNQFSMNGDCVMDKPLDLSDRFSAIQRQEKSQGSETSKNKFRQVTLYEALKTIPKGFSSSRKASDGNCTLPKDSPGEPCSQECIILQPLNKCSPDNKPSLQIKEENAVFKIPLRPRESLETENVLDDIKSAGSHEPIKIQTRSDHGGCELASVLQLNPCRTGKIKSLQNNQDVSFENIQWSIDPGADLSQYKMDVTVIDTKDGSQSKLGGETVDMDCTLVSETVLLKMKKQEQKGEKSSNEERKMNDSLEDMFDRTTHEEYESCLADSFSQAADEEEELSTATKKLHTHGDKQDKVKQKAFVEPYFKGDERETSLQNFPHIEVVRKKEERRKLLGHTCKECEIYYADMPAEEREKKLASCSRHRFRYIPPNTPENFWEVGFPSTQTCMERGYIKEDLDPCPRPKRRQPYNAIFSPKGKEQKT

Molecular target: the molecule itself
Assay: SEC-MALS

Protein	stoichiometry N
B1	2
B2	2
B3	4
B4	4
B5	2
B6	2 and 4
B7	2
SDFKDLWTKLKECHDREVQGLQVKVTKLKQERILD (domain or fragment) [CtIP-nNTD, tetramerization domain of human CtIP, residues 18-52]	4
SDFKDLWTKLKECHDREVQGLQVKVTKLKQERILD (domain or fragment) [CtIP-nNTD (residues 18-52) fused to a maltose-binding protein (MBP) tag]	4

Molecular target: the molecule itself
Assay: SEC

Protein	binding result
B8	binds

Reference: paper PMC4564947 (Nature structural & molecular biology, 2015)
